Measurements as given in patent publication US5821075.

Target: myelin basic protein, 32P-labeled on tyrosine residues

B1: PTPL1 protein tyrosine phosphatase (enzyme)
chain: MVQPEQAPKVLNVVVDPQGRGAPEIKATTATSVCPSPFKMKPIGLQERRGSNVSLTLDMSSLGNIEPFVSIPTPREKVAMEYLQSASRILDKVQLRDVVASSHLLQSEFMEIPMNFVDPKEIDIPRHGTKNRYKTILPNPLSRVCLRPKNVTDSLSTYINANYIRGYSGKEKAFIATQGPMINTVDDFWQMVWQEDSPVIVMITKLKEKNEKCVLYWPEKRGIYGKVEVLVISVNECDNYTIRNLVLKQGSHTQHVSNYWYTSWPDHKTPDSAQPLLQLMLDVEEDRLASQGPRAVVVHCSAGIGRTGCFIATSIGCQQLKEEGVVDALSIVCQLRMDRGGMVQTSEQYEFVHHALCLYESRLSAETVQ
For B1, the dephosphorylation (radioactivity released as inorganic phosphate, percentage of total input) was > 30%.
